{"source": "patent US20140248641A1", "about": "“CLONED GLUCAGON-LIKE PEPTIDE-2 RECEPTORS” (NPS PHARMACEUTICALS, INC., priority 1997, published 2014)", "assay_type_in_all_cases": "cell-based", "key": {"[1]": {"molecular_target": "T1, Rat clone 587 GLP-2 receptor (Rattus norvegicus, UniProt Q9Z0W0)", "T1 construct": "one which primed starting 4 bp upstream of the initiation codon and another which primed starting 8 bp downstream of the stop codon; expressed in transfected cells; host or cells: COS-1", "T1 sequence (Q9Z0W0 1-550)": "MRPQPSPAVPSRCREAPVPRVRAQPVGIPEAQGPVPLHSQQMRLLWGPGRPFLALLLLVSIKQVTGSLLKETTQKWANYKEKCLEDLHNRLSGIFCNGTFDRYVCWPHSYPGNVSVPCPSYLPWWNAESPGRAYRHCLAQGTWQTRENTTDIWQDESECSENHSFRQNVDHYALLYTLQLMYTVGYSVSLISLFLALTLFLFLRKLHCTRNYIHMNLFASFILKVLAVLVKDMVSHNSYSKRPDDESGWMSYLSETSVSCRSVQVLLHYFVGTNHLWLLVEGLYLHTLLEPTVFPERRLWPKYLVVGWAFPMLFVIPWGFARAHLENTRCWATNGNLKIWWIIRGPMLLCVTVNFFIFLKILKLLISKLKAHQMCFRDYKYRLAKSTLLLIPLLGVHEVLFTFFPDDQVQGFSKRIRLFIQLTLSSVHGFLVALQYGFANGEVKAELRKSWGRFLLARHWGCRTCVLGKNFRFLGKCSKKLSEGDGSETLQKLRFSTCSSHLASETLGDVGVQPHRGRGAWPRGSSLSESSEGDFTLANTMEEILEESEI", "test": "cAMP functional assay in transfected COS-1 cells, rat GLP-2 receptor", "experimental": "(§1) Cos-1 cells were transfected as described in Analytical Biochemistry, 218:460-463(1994) with Rat clone 587 GLP-2 receptor, cloned human GLP-2 receptor (pC3/HuGL2R-2), or cloned residue 85 variant human GLP-2 receptor (pC3.1/HuGL2R-MH4), pcDNA3. Rat GLP-1 (7-36) amide was used as a control peptide. Solutions used were as follows:\n(§2) RSC in RPMI 1640 (49 ml RPMI+1 ml FCS+5)0 ulchloroquine, 100 mM); DEAE/RSC Solution: 18.4 ml RSC+1.6 ml DEAE/Dextran (10 mg/ml).\n(§3) The assay procedure entailed the following: […]\nThe functional assay was performed as follows: cAMP content for each extract was determined in duplicate by EIA (Enzyme ImmunoAssay) using the Amersham Biotrak cAMP EIA Kit (Amersham 225)."}, "[2]": {"tested_on": "HHT13 clones (human GLP-2R cDNA with frame-shift mutation)", "test": "cAMP functional assay in COS cells transfected with HHT13 clones", "conditions": "COS cells transfected with pHHT13-1, pHHT13-2, pHHT13-3", "experimental": "Transfections were carried out with each clone, using the rat GLP-2R, 587 clone as a positive control for cAMP response to GLP-2 peptide. Methods for transfection, cell culture and cAMP assay were identical to those described for the functional assay of rat, 587 clone."}, "[3]": {"molecular_target": "T2, cloned human GLP-2 receptor (pC3/HuGL2R-2) (Homo sapiens, UniProt O95838)", "T2 construct": "expressed in transfected cells; host or cells: COS-1", "T2 sequence (O95838 1-553)": "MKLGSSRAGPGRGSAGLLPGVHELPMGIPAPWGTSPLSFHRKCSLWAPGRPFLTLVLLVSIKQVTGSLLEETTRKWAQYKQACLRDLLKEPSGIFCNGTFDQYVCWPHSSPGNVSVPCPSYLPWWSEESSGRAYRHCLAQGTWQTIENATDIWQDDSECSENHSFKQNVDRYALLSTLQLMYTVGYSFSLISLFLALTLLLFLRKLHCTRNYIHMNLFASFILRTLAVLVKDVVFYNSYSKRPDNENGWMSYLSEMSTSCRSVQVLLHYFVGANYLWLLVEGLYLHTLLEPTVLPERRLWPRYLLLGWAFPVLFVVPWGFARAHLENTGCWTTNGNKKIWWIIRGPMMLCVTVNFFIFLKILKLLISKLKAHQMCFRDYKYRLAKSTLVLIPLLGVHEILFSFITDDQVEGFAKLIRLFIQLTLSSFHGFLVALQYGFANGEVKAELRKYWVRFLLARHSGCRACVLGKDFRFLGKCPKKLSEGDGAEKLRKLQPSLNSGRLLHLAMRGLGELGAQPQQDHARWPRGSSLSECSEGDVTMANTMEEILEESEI", "test": "cAMP functional assay in transfected COS-1 cells, human GLP-2 receptor", "conditions": "FIG. 8", "experimental": "as §1, §2, §3\n(§4) The functional assay was performed as follows: cAMP content for each extract was determined in duplicate by EIA (Enzyme ImmunoAssay) using the Amersham Biotrak cAMP EIA Kit (Amersham 225). […]"}, "[4]": {"molecular_target": "T3, cloned residue 85 variant human GLP-2 receptor (Homo sapiens, UniProt O95838, R85E)", "T3 construct": "Myc-His (from vector pcDNA3.1(-)/Myc-His A) (C); expressed in transfected cells; host or cells: COS-1", "T3 sequence (O95838 1-553 R85E)": "T2 sequence (O95838 1-553) with R85E", "test": "cAMP functional assay in transfected COS-1 cells, residue 85 variant human GLP-2 receptor", "conditions": "hybrid clone pc3.1/HuGL2R/MH6 with 2 bp GA replacement (Glu85 variant)", "experimental": "Rat GLP-1 (7-36) amide was used as a control peptide. Solutions used were as follows:\nas §2\nThe assay procedure entailed the following:\na) […] of either rat clone 587 GLP-2 receptor, or cloned human GLP-2 receptor, or cloned residue 85 variant human GLP-2 receptor was added (as plasmid pcDNA3) to a 50 ml tube containing six mls. of RSC and incubated at 37° C. b) Six ml of DEAE/RSC solution was added to each tube and incubated at 37° C. for 2 min. c) 1.5 ml of COS-1 cell suspension (5.5 millions cells) was added to each tube and incubated for 1 hr 45 min at 37° C. d) Following incubation, the sample was spun for 5 minutes at low speed, washed with DMEM/F12+10% FBS twice, and the pellet resuspended in 12.5 ml DMEM/F12+10% FBS media. e) One ml of cell suspension (step d) was added to each well of 6 well plates coated with poly-D-lysine (from Collaborative Biomedical), containing 3 ml of media (0.45 million cells/well). f) Plates were incubated at 37° C. for 3 days.\nMedia was prepared fresh on day of use. […]\nas §4"}}, "note": "Changes are numbered by the printed parent chain.", "data": [{"substance": "Glucagon-like peptide-2 [GLP-2]", "values": [{"measurement": "cAMP response to GLP-2 peptide", "setting": "[1]; COS cells transfected with rat GLP-2R 587 clone (positive control), cAMP EIA", "value": "good cAMP response"}, {"measurement": "selectivity of receptor for GLP-2 over GLP-1 (cAMP)", "setting": "[1]; cloned rat receptor, peptides at 1, 3, 10 and 30 nM, 30 min, FIG. 3", "value": "GLP-2 selectivity"}, {"measurement": "cAMP response to GLP-2 peptide", "setting": "[2]", "value": "none of the HHT13 clones gave any cAMP response"}, {"measurement": "cAMP production in response to GLP-2 treatment", "setting": "[3]; COS cells transfected with pc3/HuGL2R-2", "value": "cAMP production"}, {"measurement": "selectivity of receptor for GLP-2 over GLP-1 (cAMP)", "setting": "[3]; cloned human receptor, peptides at 1, 3, 10 and 30 nM, 30 min", "value": "GLP-2 selectivity"}, {"measurement": "cAMP response to GLP-2 treatment", "setting": "[4]", "value": "cAMP response"}]}]}
